Measured values: the supplement of paper PMC10065799, “High-throughput profiling of sequence recognition by tyrosine kinases and SH2 domains using bacterial peptide display” (eLife, 2023)

molecular target: MERTK (UniProt Q12866); test: phosphorylation enrichment, bacterial display (enrichment ratio); higher = better substrate or ligand; peptides without Tyr show the background
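Also: 11-residue human phosphosite peptides and single-mutation variants displayed on the E. coli surface, counted by deep sequencing, each peptide's frequency after selection divided by its frequency in the unselected input library; frequency after pTyr selection over input frequency; kinase dosed for 20-30% of maximal phosphorylation in three min.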

Chain of MERTK (Q12866 whole entry, looked up): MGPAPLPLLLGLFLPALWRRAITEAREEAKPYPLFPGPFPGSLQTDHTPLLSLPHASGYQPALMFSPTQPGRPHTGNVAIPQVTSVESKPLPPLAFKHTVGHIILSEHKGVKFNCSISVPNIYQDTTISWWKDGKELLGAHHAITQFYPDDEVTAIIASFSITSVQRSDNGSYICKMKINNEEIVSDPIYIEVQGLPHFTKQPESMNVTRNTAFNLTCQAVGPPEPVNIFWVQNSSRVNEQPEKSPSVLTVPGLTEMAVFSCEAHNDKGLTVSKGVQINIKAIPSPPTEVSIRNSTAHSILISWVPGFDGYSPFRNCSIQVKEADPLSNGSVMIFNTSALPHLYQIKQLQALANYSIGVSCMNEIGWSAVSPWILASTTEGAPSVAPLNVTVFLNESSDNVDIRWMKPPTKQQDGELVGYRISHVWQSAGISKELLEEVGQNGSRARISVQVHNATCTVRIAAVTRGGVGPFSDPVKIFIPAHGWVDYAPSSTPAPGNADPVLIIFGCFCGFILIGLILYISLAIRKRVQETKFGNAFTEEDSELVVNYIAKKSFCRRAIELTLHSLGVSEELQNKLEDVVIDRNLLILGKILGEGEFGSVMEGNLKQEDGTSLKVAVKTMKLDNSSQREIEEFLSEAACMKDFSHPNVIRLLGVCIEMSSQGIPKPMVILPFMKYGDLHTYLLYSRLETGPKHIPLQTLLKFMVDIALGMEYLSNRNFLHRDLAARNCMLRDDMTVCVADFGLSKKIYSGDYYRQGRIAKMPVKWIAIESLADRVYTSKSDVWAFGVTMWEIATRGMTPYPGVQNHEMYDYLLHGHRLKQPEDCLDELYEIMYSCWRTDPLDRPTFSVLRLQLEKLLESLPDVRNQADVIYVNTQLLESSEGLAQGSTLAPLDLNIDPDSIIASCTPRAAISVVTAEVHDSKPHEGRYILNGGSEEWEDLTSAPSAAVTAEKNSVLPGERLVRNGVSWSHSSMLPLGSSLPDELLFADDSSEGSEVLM

Sequence | phosphorylation enrichment
WGLRSYFETSK [MAGED2_Y448_YF] | 0.385
FLAATYPTLGQ [NF1_Y2508_V2511L_YF] | 0.356
DLQDENDFKCK [STAT1_Y170_Y170N] | 0.415
PASLSYLSFEG [EXOSC3_Y143] | 0.661
KHASTYREAAT [DEAF1_Y483] | 0.359
GMKIVYVYVKK [DNAI2_Y5_E2K] | 0.418
QQLDEYQKLLD [LMNA_Y359_E361K] | 0.81
LLKAGYQGVLR [TTPA_Y100_H101Q] | 0.459
EIRTQYEAMAS [GFAP_Y242] | 0.415
PVQDAYQKVVA [HBB_Y131_A129D] | 0.379
DPYHVYIKNRV [KCNE3_Y95] | 0.396
GKVFIYHGSSL [ITGA7_Y458] | 0.364
TESALYGCTVV [KIAA1804_Y724_L729V] | 1.83
EFGEVYKGTLK [EPHA2_Y628_M631T] | 0.362
KWELRYMHSRV [ABCD1_Y281_G277W] | 0.369
TQTPPYVKKHP [LARP1B_Y457] | 0.466
SVESPYGSVTF [NDRG2_Y47_T45S] | 0.525

Sequence | phosphorylation enrichment
QRPFVYFFSFL [PTEN_Y176_R173P_YF] | 0.664
TVLEPYADPFF [ZC3H18_Y367_YF] | 0.408
SVVVRYEPPEV [TP53_Y220_P219R] | 0.425
GIVTGYLVLKE [DNMT3B_Y588_A585V] | 0.524
ADLTEYLSTHF [UQCRC1_Y219_YF] | 0.571
VPVPGYTKVPE [SPRR3_Y146_L149V] | 0.501
QMVGMYAFSFM [AVPR2_Y124_S126F_YF] | 5.8
ATHSGYRLNDF [CLDN14_Y233_YF] | 0.42
FEDTLYTVLHR [UNC13D_Y61_A59T_YF] | 7.86
HLEKKYVRRDS [CSF1R_Y708] | 6.59
ASENVYVNIAH [CTSC_Y150] | 0.826
KGEDFYCVTYH [FHL1_Y149_C153Y] | 3.58
EFLRNYFTDKA [DSG2_Y775] | 0.567
LRVKMYNFLRS [ADGRG7_Y760] | 1.19
PPQFSYGLQTQ [SRA1_Y35] | 0.467
YIGVTYKNKED [PDGFRA_Y993_E996K] | 0.44

system: c-Abl (mouse); test: as above

Sequence | phosphorylation enrichment
WGLRSYFETSK [MAGED2_Y448_YF] | 0.517
FLAATYPTLGQ [NF1_Y2508_V2511L_YF] | 0.549
DLQDENDFKCK [STAT1_Y170_Y170N] | 0.812
PASLSYLSFEG [EXOSC3_Y143] | 0.619
KHASTYREAAT [DEAF1_Y483] | 0.52
GMKIVYVYVKK [DNAI2_Y5_E2K] | 0.801
QQLDEYQKLLD [LMNA_Y359_E361K] | 1.03
LLKAGYQGVLR [TTPA_Y100_H101Q] | 0.442
EIRTQYEAMAS [GFAP_Y242] | 0.676
PVQDAYQKVVA [HBB_Y131_A129D] | 0.421
DPYHVYIKNRV [KCNE3_Y95] | 0.832
GKVFIYHGSSL [ITGA7_Y458] | 0.672
TESALYGCTVV [KIAA1804_Y724_L729V] | 0.888
EFGEVYKGTLK [EPHA2_Y628_M631T] | 0.521
KWELRYMHSRV [ABCD1_Y281_G277W] | 0.759
TQTPPYVKKHP [LARP1B_Y457] | 0.514
SVESPYGSVTF [NDRG2_Y47_T45S] | 0.57

Sequence | phosphorylation enrichment
QRPFVYFFSFL [PTEN_Y176_R173P_YF] | 0.967
TVLEPYADPFF [ZC3H18_Y367_YF] | 0.565
SVVVRYEPPEV [TP53_Y220_P219R] | 0.747
GIVTGYLVLKE [DNMT3B_Y588_A585V] | 0.833
ADLTEYLSTHF [UQCRC1_Y219_YF] | 0.958
VPVPGYTKVPE [SPRR3_Y146_L149V] | 0.615
QMVGMYAFSFM [AVPR2_Y124_S126F_YF] | 0.912
ATHSGYRLNDF [CLDN14_Y233_YF] | 0.906
FEDTLYTVLHR [UNC13D_Y61_A59T_YF] | 1.99
HLEKKYVRRDS [CSF1R_Y708] | 2.1
ASENVYVNIAH [CTSC_Y150] | 0.8
KGEDFYCVTYH [FHL1_Y149_C153Y] | 1.04
EFLRNYFTDKA [DSG2_Y775] | 0.764
LRVKMYNFLRS [ADGRG7_Y760] | 1.25
PPQFSYGLQTQ [SRA1_Y35] | 0.483
YIGVTYKNKED [PDGFRA_Y993_E996K] | 0.675

molecular target: EPHB2 (UniProt P29323); test: as above
Sequence (P29323 whole entry, looked up): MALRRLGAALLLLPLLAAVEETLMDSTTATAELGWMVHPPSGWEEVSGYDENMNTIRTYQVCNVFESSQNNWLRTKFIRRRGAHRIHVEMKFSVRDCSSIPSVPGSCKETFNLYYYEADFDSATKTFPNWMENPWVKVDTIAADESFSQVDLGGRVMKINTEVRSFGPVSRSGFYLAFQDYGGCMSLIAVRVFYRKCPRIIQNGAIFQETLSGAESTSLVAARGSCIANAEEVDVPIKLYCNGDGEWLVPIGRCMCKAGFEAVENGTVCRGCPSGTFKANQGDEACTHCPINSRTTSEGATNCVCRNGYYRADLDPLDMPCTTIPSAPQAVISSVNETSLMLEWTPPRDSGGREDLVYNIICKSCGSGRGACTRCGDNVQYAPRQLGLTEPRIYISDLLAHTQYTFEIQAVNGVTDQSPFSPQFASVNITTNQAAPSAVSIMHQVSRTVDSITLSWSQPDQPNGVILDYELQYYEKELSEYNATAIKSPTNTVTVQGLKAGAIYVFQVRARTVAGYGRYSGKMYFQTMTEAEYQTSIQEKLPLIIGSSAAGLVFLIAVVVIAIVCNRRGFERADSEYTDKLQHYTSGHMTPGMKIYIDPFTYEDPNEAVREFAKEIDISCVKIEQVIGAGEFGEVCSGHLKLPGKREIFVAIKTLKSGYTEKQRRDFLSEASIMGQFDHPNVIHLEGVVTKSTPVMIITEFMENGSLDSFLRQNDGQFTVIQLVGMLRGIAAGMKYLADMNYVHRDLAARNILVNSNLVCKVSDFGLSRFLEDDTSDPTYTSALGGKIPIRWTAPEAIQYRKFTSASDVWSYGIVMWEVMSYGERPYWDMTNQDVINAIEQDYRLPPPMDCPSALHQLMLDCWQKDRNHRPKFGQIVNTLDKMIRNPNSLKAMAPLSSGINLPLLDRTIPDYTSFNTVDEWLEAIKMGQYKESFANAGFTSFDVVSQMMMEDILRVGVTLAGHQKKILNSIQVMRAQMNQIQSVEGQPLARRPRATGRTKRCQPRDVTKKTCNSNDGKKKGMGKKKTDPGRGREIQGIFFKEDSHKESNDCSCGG

Sequence | phosphorylation enrichment
WGLRSYFETSK [MAGED2_Y448_YF] | 0.594
FLAATYPTLGQ [NF1_Y2508_V2511L_YF] | 0.4
DLQDENDFKCK [STAT1_Y170_Y170N] | 0.737
PASLSYLSFEG [EXOSC3_Y143] | 0.789
KHASTYREAAT [DEAF1_Y483] | 0.324
GMKIVYVYVKK [DNAI2_Y5_E2K] | 0.594
QQLDEYQKLLD [LMNA_Y359_E361K] | 1.28
LLKAGYQGVLR [TTPA_Y100_H101Q] | 0.366
EIRTQYEAMAS [GFAP_Y242] | 0.577
PVQDAYQKVVA [HBB_Y131_A129D] | 0.308
DPYHVYIKNRV [KCNE3_Y95] | 0.567
GKVFIYHGSSL [ITGA7_Y458] | 0.614
TESALYGCTVV [KIAA1804_Y724_L729V] | 0.833
EFGEVYKGTLK [EPHA2_Y628_M631T] | 0.409
KWELRYMHSRV [ABCD1_Y281_G277W] | 0.528
TQTPPYVKKHP [LARP1B_Y457] | 0.39
SVESPYGSVTF [NDRG2_Y47_T45S] | 0.862

Sequence | phosphorylation enrichment
QRPFVYFFSFL [PTEN_Y176_R173P_YF] | 0.703
TVLEPYADPFF [ZC3H18_Y367_YF] | 0.5
SVVVRYEPPEV [TP53_Y220_P219R] | 0.503
GIVTGYLVLKE [DNMT3B_Y588_A585V] | 0.494
ADLTEYLSTHF [UQCRC1_Y219_YF] | 0.672
VPVPGYTKVPE [SPRR3_Y146_L149V] | 0.541
QMVGMYAFSFM [AVPR2_Y124_S126F_YF] | 3.08
ATHSGYRLNDF [CLDN14_Y233_YF] | 0.514
FEDTLYTVLHR [UNC13D_Y61_A59T_YF] | 4.95
HLEKKYVRRDS [CSF1R_Y708] | 2.23
ASENVYVNIAH [CTSC_Y150] | 0.924
KGEDFYCVTYH [FHL1_Y149_C153Y] | 1.12
EFLRNYFTDKA [DSG2_Y775] | 0.472
LRVKMYNFLRS [ADGRG7_Y760] | 2.15
PPQFSYGLQTQ [SRA1_Y35] | 0.584
YIGVTYKNKED [PDGFRA_Y993_E996K] | 0.505

system: Fer (mouse); test: as above

Sequence | phosphorylation enrichment
WGLRSYFETSK [MAGED2_Y448_YF] | 0.42
FLAATYPTLGQ [NF1_Y2508_V2511L_YF] | 0.4
DLQDENDFKCK [STAT1_Y170_Y170N] | 0.612
PASLSYLSFEG [EXOSC3_Y143] | 0.501
KHASTYREAAT [DEAF1_Y483] | 0.363
GMKIVYVYVKK [DNAI2_Y5_E2K] | 0.605
QQLDEYQKLLD [LMNA_Y359_E361K] | 0.905
LLKAGYQGVLR [TTPA_Y100_H101Q] | 0.425
EIRTQYEAMAS [GFAP_Y242] | 0.483
PVQDAYQKVVA [HBB_Y131_A129D] | 0.493
DPYHVYIKNRV [KCNE3_Y95] | 0.375
GKVFIYHGSSL [ITGA7_Y458] | 0.546
TESALYGCTVV [KIAA1804_Y724_L729V] | 5
EFGEVYKGTLK [EPHA2_Y628_M631T] | 0.448
KWELRYMHSRV [ABCD1_Y281_G277W] | 0.457
TQTPPYVKKHP [LARP1B_Y457] | 0.439
SVESPYGSVTF [NDRG2_Y47_T45S] | 9.44

Sequence | phosphorylation enrichment
QRPFVYFFSFL [PTEN_Y176_R173P_YF] | 0.707
TVLEPYADPFF [ZC3H18_Y367_YF] | 0.536
SVVVRYEPPEV [TP53_Y220_P219R] | 0.466
GIVTGYLVLKE [DNMT3B_Y588_A585V] | 0.647
ADLTEYLSTHF [UQCRC1_Y219_YF] | 0.493
VPVPGYTKVPE [SPRR3_Y146_L149V] | 0.525
QMVGMYAFSFM [AVPR2_Y124_S126F_YF] | 3.54
ATHSGYRLNDF [CLDN14_Y233_YF] | 0.361
FEDTLYTVLHR [UNC13D_Y61_A59T_YF] | 5.83
HLEKKYVRRDS [CSF1R_Y708] | 1.67
ASENVYVNIAH [CTSC_Y150] | 3.79
KGEDFYCVTYH [FHL1_Y149_C153Y] | 2.15
EFLRNYFTDKA [DSG2_Y775] | 0.573
LRVKMYNFLRS [ADGRG7_Y760] | 1.08
PPQFSYGLQTQ [SRA1_Y35] | 0.286
YIGVTYKNKED [PDGFRA_Y993_E996K] | 0.533
